Measurements published in patent US20260146091A1 (FUNDACI N PARA LA INVESTIGACI N M DICA APLICADA, published 2026).

T1: biotinylated mPD-1-Fc (BPS Bioscience) (mouse; human, UniProt Q02242 25-169, biotinylated (site not stated))
T1 construct: extracellular domain; Bought from BPS Bioscience; also called mouse PD-1
T1 sequence (looked up): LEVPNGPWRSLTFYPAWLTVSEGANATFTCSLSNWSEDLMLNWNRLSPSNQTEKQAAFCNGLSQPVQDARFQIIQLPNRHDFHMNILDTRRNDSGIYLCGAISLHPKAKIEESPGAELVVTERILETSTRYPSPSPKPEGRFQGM

B1: Nb6p-Fc (Nb6p fused to mouse IgG2a Fc domain including hinge) (Fc fusion)
chain: AEVQLVESGGGLVQAGGSLRLSCAAAGRSFNSNAMGWVRQAPGKEREIVAVISATGSYTYYEDSVKGRFTISRDNSKNTVSLQMSSLSSEDTAVYYCAGSRTAALTTIMTLFNYWGQGTQVTVSSPGPRGPTIKPCPPCKCPAPNLLGGPSVFIFPPKIKDVLMISLSPIVTCVVVDVSEDDPDVQISWFVNNVEVHTAQTQTHREDYNSTLRVVSALPIQHQDWMSGKEFKCKVNNKDLPAPIERTISKPKGSVRAPQVYVLPPPEEEMTKKQVTLTCMVTDFMPEDIYVEWTNNGKTELNYKNTEPVLDSDGSYFMYSKLRVEKKNWVERNSYSCSVVHEGLHNHHTTKSFSRTPGK
notes: Fc homodimer, purified on protein A from supernatants of BHK-21 cells electroporated with SFV-Nb6p-Fc RNA; also called dimeric Nb6p
B2: Nb11-Fc (Nb11 fused to mouse IgG1 Fc domain including hinge) (Fc fusion)
chain: AQVQLVQSGGGSVQAGDSLRLSCAVSGHPDSSYSMAWFRQAPGKERELVALISWSGAITHYSDSVKDRFTISRDNAKNEMYLQMDSLKPEDTAVYFCQADDPTSELNQYWGQGTQVTVSSGCKPCICTVPEVSSVFIFPPKPKDVLTITLTPKVTCVVVDISKDDPEVQFSWFVDDVEVHTAQTQPREEQFNSTFRSVSELPIMHQDWLNGKEFKCRVNSAAFPAPIEKTISKTKGRPKAPQVYTIPPPKEQMAKDKVSLTCMITDFFPEDITVEWQWNGQPAENYKNTQPIMDTDGSYFVYSKLNVQKSNWEAGNTFTCSVLHEGLHNHHTEKSLSHSPGK
notes: Fc homodimer, concentrated from supernatants of BHK-21 cells electroporated with SFV-Nb11-Fc RNA; also called dimeric Nb11

Experiments:
[1] = molecular target: T2, biotinylated hPD-L1 fused to human IgG Fc (BPS Bioscience) (human, UniProt Q9NZQ7 19-238, biotinylated (site not stated)); test: competitive ELISA, human PD-1/PD-L1
T2 construct: extracellular domain; Bought from BPS Bioscience; also called human PD-L1
Method: (§1) The ability of nanobodies (Nbs) to inhibit the binding of PD-1 with PD-L1 was evaluated by competitive ELISA. For human molecules, plates were coated with 0.5 μg/mL hPD-1-Fc (R&D, Minneapolis, MN) in PBS o/n at 4° C. […] For mouse molecules, a similar protocol was followed. […] The signal of wells incubated without Nbs or antibodies were considered 100% of PD-1/PD-L1 binding.

[2] = molecular target: T3, mPD-L1-Fc (mouse PD-L1 ectodomain fused to human IgG1 Fc, BioLegend) (mouse; human, UniProt Q9EP73 19-239); test: competitive ELISA, mouse PD-1/PD-L1
T3 construct: extracellular domain; Bought from BioLegend; not shown: human IgG1 Fc domain
Method: as §1

[3] = molecular target: T2, biotinylated hPD-L1 fused to human IgG …; test: competitive ELISA, human PD-1/PD-L1; the reference value of envafolimab (5.25 nM) is from the literature
[4] = molecular target: T4, hPD-1-Fc (human PD-1 ectodomain fused to human IgG1 Fc, R&D) (human, UniProt Q15116 25-170); test: competitive ELISA, human PD-1/PD-L1
T4 construct: extracellular domain; Bought from R&D; not shown: human IgG1 Fc domain
Method: as §1

[5] = molecular target: T1, biotinylated mPD-1-Fc (BPS Bioscience); test: competitive ELISA, mouse PD-1/PD-L1
Method: as §1

T2 sequence (Q9NZQ7 19-238): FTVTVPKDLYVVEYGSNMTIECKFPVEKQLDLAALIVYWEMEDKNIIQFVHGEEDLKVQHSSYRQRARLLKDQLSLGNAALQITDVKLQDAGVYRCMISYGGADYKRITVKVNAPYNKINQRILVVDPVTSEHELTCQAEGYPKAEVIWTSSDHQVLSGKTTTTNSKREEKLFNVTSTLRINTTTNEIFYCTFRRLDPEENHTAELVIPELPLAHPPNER
T4 sequence (Q15116 25-170): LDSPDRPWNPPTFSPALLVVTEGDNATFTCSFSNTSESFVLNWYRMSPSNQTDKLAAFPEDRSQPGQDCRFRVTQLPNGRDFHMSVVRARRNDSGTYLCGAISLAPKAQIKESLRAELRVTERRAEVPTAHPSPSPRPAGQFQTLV
T3 sequence (Q9EP73 19-239): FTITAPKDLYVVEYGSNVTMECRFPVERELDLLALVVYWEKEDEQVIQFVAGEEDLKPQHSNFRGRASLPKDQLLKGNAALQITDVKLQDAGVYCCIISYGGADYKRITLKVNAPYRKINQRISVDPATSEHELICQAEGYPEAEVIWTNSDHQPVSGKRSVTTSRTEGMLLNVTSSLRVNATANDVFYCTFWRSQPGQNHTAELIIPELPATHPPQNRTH

Binder | fold IC50 reduction against monomeric Nb6p [1] [fold] | fold IC50 reduction of the Fc homodimer against monomeric Nb6p [1] [fold] | fold IC50 reduction against monomeric Nb6p [2] [fold] | fold IC50 reduction of the Fc homodimer against monomeric Nb6p [2] [fold] | fold by which the literature IC50 of envafolimab is higher than that of Nb6p-Fc [3] [fold] | fold IC50 reduction against monomeric Nb11 [4] [fold] | fold IC50 reduction against nivolumab [4] [fold] | fold lower IC50 than nivolumab [4] [fold] | fold IC50 reduction against clone RMPI-14 [5] [fold] | fold IC50 reduction against monomeric Nb11 [5] [fold]
B1 | ~7 | ~8 | ~7 | ~8 | ~10 | – | – | – | – | –
B2 | – | – | – | – | – | ~40 | 10 | 8.6 | 700 | ~40
